The results in this text go back to article PMC2814788.

In this experiment the target is C-terminally myc-tagged Sec8 (Sec8-myc) (S. cerevisiae) (UniProt P32855). In words: co-IP.
Chain of UniProt P32855 (P32855 whole entry): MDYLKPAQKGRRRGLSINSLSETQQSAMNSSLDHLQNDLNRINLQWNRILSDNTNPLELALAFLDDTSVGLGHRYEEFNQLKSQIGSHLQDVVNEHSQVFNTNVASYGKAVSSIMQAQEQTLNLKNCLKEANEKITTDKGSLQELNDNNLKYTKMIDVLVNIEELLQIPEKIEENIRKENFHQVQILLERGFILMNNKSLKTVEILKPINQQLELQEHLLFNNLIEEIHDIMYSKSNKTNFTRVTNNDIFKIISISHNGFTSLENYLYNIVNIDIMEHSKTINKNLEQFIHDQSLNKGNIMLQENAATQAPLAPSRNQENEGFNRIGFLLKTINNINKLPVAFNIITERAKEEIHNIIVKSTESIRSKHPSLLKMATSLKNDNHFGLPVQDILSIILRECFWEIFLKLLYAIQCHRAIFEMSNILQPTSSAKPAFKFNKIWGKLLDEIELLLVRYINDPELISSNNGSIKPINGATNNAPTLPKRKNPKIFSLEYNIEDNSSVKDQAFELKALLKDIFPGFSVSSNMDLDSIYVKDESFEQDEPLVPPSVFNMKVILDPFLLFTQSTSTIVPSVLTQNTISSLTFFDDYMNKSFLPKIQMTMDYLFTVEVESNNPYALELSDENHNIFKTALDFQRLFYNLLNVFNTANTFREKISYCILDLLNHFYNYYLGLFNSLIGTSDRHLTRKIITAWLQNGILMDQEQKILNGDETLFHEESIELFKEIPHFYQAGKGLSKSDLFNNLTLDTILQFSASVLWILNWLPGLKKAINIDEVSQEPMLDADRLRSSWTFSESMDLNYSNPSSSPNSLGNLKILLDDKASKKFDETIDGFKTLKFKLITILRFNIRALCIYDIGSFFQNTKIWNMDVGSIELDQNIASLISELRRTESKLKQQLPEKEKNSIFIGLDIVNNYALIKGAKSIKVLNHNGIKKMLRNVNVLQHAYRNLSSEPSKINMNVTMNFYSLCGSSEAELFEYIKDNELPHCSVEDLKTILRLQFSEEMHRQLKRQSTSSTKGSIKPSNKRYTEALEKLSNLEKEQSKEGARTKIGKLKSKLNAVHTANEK

In the case of “Exo70-E557K (gain-of-function mutant, in yeast lysate) (from UniProt P19658 63-623) (natural protein)”, the reduction of coprecipitated Exo70 against wild type is 25%.
